Results from US20210188971A1.

Tests used:
[1] = target: L1-10_NLuc antigen (Strep-MBP-L1-10-Nluc) (human); assay: competition ELISA, soluble M22 titrated with L1-10_NLuc at 0.1 µg/mL; competitor M22 coated on the plate
[2] = target: L1-10_NLuc antigen (Strep-MBP-L1-10-Nluc) (human); assay: competition ELISA, soluble M22 titrated with L1-10_NLuc at 0.2 µg/mL; competitor M22 coated on the plate
[3] = target: L1-10_NLuc antigen (Strep-MBP-L1-10-Nluc) (human); assay: luminescence ELISA, M22 directly coated, L1-10_NLuc titrated
[4] = target: L1-10_NLuc antigen (Strep-MBP-L1-10-Nluc) (human); assay: competition ELISA, soluble M22 titrated with L1-10_NLuc at 1 µg/mL; competitor M22 coated on the plate

IC50 [1]: 0.008 µg/mL | IC50 [2]: 0.012 µg/mL | RLU [3]: < 7e+06 RLU | IC50 [4]: 0.03 µg/mL
Substance: M22, unlabeled (thyroid-stimulating TSHR-specific monoclonal antibody)
